Numbering of substitutions follows the chain as printed. Each block holds one binder with its values, some of them ahead of it.
Molecular target: human ROR2 (human, UniProt Q01974 34-403, limits assumed)
Test: SPR
Method in brief: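 Binding of humanized anti-human ROR2 monoclonal antibodies to human ROR2 was measured by surface plasmon resonance. Affinity is given as the dissociation constant (Kd), in nM. The antibodies were produced by grafting murine complementarity-determining regions into human acceptor frameworks and converting the constant region to human IgG1.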

Sequence of human ROR2 (Q01974 34-403 limits assumed): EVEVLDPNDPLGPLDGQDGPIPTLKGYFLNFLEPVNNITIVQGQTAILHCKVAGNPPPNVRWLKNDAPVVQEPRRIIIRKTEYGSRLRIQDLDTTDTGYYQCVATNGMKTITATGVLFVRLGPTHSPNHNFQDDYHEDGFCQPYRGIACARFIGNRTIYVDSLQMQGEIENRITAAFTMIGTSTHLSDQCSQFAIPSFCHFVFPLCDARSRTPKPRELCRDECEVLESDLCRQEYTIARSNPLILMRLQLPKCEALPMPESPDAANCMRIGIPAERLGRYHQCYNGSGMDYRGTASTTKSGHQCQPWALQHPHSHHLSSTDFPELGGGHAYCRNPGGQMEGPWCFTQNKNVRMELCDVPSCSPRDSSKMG

B1: h6E6-002 (antibody, V domains shown)
VH: EVQLVESGGGLVKPGGSLRLSCAASGFTFSSYGISWVRQAPGKGLEWVSTISSGGGYTHYAESVKGRFTISRDNAKNSLYLQMNSLRAEDTAVYYCARHPRDFSYAMDYWGQGTTVTVSS
VL: EIVMTQSPATLSVSPGERATLSCRASQDVGHYLAWYQQKPGQAPRLLIYWASTRHTGIPARFSGSGSGTEFTLTISSLQSEDFAVYYCQQYNIYPWTFGQGTKVEIK
notes: also called clone 2
Kd: 0.284 nM

B2: h6E6-032 (antibody, V domains shown)
VH: B1 VH with S31N, I34T
VL: B1 VL with R24K, H55A
notes: also called clone 32
Kd: 0.479 nM

B4: h6E6-017 (antibody, V domains shown)
VH: B1 VH with S31R, I34M, T50S
VL: B1 VL with R24K
notes: also called clone 17
Kd: 4 nM

B5: h6E6-052 (antibody, V domains shown)
VH: B1 VH with S31H, I34T, M107I
VL: B1 VL with R24K, H55A
notes: also called clone 52
Kd: 0.533 nM

B9: h6E6-049 (antibody, V domains shown)
VH: B1 VH with S31N, I34M, T50S
VL: B1 VL with R24K, L33V, H55A
notes: also called clone 49
Kd: 1.4 nM

B11: h6E6-003 (antibody, V domains shown)
VH: B1 VH with S31Q, I34T, M107H
VL: B1 VL
notes: also called clone 3
Kd: 0.321 nM

B12: h6E6-026 (antibody, V domains shown)
VH: B1 VH with S31R, I34M, E62A
VL: B1 VL with R24K, L33V
notes: also called clone 26
Kd: 0.335 nM

B15: h6E6-071 (antibody, V domains shown)
VH: B1 VH with S31H, I34M, M107F
VL: B1 VL with R24K
notes: also called clone 71
Kd: 0.582 nM

B17: h6E6-005 (antibody, V domains shown)
VH: B1 VH with S31G, I34L, E62A
VL: B1 VL with R24K, L33V, H55A
notes: also called clone 5
Kd: 0.476 nM

B18: h6E6-069 (antibody, V domains shown)
VH: B1 VH with S31K, I34V, A61V
VL: B1 VL with R24K, H55A
notes: also called clone 69
Kd: 0.407 nM

B21: h6E6-015 (antibody, V domains shown)
VH: B1 VH with S31N, I34L, A61V, E62T, M107L
VL: B1 VL with R24K, L33V
notes: also called clone 15
Kd: 0.386 nM

B26: h6E6-024 (antibody, V domains shown)
VH: B1 VH with S31E, I34M, A61V
VL: B1 VL with L33V, H55A
notes: also called clone 24
Kd: 0.605 nM

B27: h6E6-046 (antibody, V domains shown)
VH: B1 VH with S31R, E62T
VL: B1 VL with R24K, L33V
notes: also called clone 46
Kd: 0.527 nM

B28: h6E6-025 (antibody, V domains shown)
VH: B1 VH with S31H, I34H, A61V
VL: B1 VL with L33V, H55A
notes: also called clone 25
Kd: 0.509 nM

B29: h6E6-064 (antibody, V domains shown)
VH: B1 VH with S31H, T50S
VL: B1 VL with L33V, H55A
notes: also called clone 64
Kd: 5.8 nM

B31: h6E6-050 (antibody, V domains shown)
VH: B1 VH with S31R, I34M, A61V, E62D, M107H
VL: B1 VL with R24K, H55A
notes: also called clone 50
Kd: 0.482 nM

B32: h6E6-020 (antibody, V domains shown)
VH: B1 VH with S31K, I34V, E62P
VL: B1 VL with R24K, H55A
notes: also called clone 20
Kd: 0.629 nM

B33: h6E6-012 (antibody, V domains shown)
VH: B1 VH with S31A, I34A, T50S, A61V, M107Q
VL: B1 VL with H55A
notes: also called clone 12
Kd: 1.4 nM

B34: h6E6-062 (antibody, V domains shown)
VH: B1 VH with I34H, H59Y, M107H
VL: B1 VL with R24K, H55A
notes: also called clone 62
Kd: 0.839 nM

These reach a lower Kd. Values come first.

Kd: 0.16 nM
B3: h6E6-051 (antibody, V domains shown)
VH: B1 VH with S31N, I34M, A61V, E62D, M107L
VL: B1 VL with R24K, L33V, H55A
notes: also called clone 51

Kd: 0.203 nM
B6: h6E6-076 (antibody, V domains shown)
VH: B1 VH with S31G, I34M, A61V, M107L
VL: B1 VL with R24K, H55A
notes: also called clone 76

Kd: 0.103 nM
B7: h6E6-031 (antibody, V domains shown)
VH: B1 VH with I34M, A75D, M107I
VL: B1 VL with L33V
notes: also called clone 31

Kd: 0.178 nM
B8: h6E6-054 (antibody, V domains shown)
VH: B1 VH with S31N, I34V, A61V, E62T, M107L
VL: B1 VL with R24K, L33V, H55A
notes: also called clone 54

Kd: 0.147 nM
B10: h6E6-038 (antibody, V domains shown)
VH: B1 VH with S31R, I34M, E62P, L86P, M107Q
VL: B1 VL with R24K
notes: also called clone 38

Kd: 0.166 nM
B13: h6E6-006 (antibody, V domains shown)
VH: B1 VH with S31T, I34M, E62T, M107H
VL: B1 VL with H55A
notes: also called clone 6

Kd: 0.134 nM
B14: h6E6-045 (antibody, V domains shown)
VH: B1 VH with S31G, I34M, A61V, E62Q
VL: B1 VL with R24K, L33V, H55A
notes: also called clone 45

Kd: 0.215 nM
B16: h6E6-009 (antibody, V domains shown)
VH: B1 VH with S31G, I34M, S35N, M107A
VL: B1 VL with R24K, H55A
notes: also called clone 9

Kd: 0.271 nM
B19: h6E6-022 (antibody, V domains shown)
VH: B1 VH with S31K, I34T, E62P
VL: B1 VL with R24K, L33V, H55A
notes: also called clone 22

Kd: 0.2 nM
B20: h6E6-023 (antibody, V domains shown)
VH: B1 VH with I34M, E62P, M107L
VL: B1 VL with R24K, H55A
notes: also called clone 23

Kd: 0.037 nM
B22: h6E6-016 (antibody, V domains shown)
VH: B1 VH with S31A, I34M, E62T, M107Q
VL: B1 VL with R24K, L33V
notes: also called clone 16

Kd: 0.086 nM
B23: h6E6-047 (antibody, V domains shown)
VH: B1 VH with S31K, I34M, L45P, E62T, M107L
VL: B1 VL with L33V, H55A
notes: also called clone 47

Kd: 0.221 nM
B24: h6E6-030 (antibody, V domains shown)
VH: B1 VH with I34M, E62A
VL: B1 VL with R24K, H55A
notes: also called clone 30

Kd: 0.23 nM
B25: h6E6-010 (antibody, V domains shown)
VH: B1 VH with S31N, I34M, A61V, E62A
VL: B1 VL with R24K, H55A
notes: also called clone 10

Kd: 0.057 nM
B30: h6E6-014 (antibody, V domains shown)
VH: B1 VH with I34M, S35N, A61V, E62D, M107T
VL: B1 VL with L33V
notes: also called clone 14

Kd: 0.144 nM
B35: h6E6-033 (antibody, V domains shown)
VH: B1 VH with S31T, I34M, A61V, E62T
VL: B1 VL with R24K, L33V
notes: also called clone 33
